According to the supplement of paper PMC10065799, “High-throughput profiling of sequence recognition by tyrosine kinases and SH2 domains using bacterial peptide display” (eLife, 2023):
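Note: 11-residue human phosphosite peptides and single-mutation variants displayed on the E. coli surface, counted by deep sequencing, each peptide's frequency after selection divided by its frequency in the unselected input library; frequency after pTyr selection over input frequency; kinase dosed for 20-30% of maximal phosphorylation in three min.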

These sequences were tested against EPHB1 (UniProt P54762) (assay: phosphorylation enrichment, bacterial display (enrichment ratio); higher = better substrate or ligand; peptides without Tyr show the background).
Chain of EPHB1 (P54762 whole entry, looked up): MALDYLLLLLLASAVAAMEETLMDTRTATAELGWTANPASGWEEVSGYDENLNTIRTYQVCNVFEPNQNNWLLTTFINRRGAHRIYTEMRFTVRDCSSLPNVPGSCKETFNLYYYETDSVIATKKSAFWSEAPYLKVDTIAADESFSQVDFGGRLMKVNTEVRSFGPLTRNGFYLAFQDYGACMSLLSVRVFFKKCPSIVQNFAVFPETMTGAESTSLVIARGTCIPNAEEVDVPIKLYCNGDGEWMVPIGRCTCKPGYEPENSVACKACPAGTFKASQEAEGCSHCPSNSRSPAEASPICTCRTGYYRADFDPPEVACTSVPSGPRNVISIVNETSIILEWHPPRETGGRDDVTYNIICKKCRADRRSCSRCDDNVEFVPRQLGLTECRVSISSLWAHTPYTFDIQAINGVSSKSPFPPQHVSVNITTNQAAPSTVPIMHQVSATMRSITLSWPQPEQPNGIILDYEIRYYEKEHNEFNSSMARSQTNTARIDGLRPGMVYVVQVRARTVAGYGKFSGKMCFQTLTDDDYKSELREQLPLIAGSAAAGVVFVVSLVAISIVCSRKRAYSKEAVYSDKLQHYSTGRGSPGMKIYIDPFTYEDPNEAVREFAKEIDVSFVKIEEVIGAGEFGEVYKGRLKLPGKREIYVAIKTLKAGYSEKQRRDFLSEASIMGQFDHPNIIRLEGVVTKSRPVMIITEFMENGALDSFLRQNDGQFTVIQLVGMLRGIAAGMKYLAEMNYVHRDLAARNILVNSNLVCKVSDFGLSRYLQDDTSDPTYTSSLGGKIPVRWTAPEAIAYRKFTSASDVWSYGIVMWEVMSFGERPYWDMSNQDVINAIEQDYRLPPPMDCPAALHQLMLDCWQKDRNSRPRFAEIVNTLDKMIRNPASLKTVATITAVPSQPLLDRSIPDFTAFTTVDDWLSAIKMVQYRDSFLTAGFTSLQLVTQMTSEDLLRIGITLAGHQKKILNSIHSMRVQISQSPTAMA
Work on FRQLQYCPSVE [CTNND2_Y508_YF] yielded a phosphorylation enrichment of 0.669. With AEMKRYAESSS [RAI14_Y869] the phosphorylation enrichment was 0.45. With EPYEVYRIVPE [IRF8_Y110_K108E] the phosphorylation enrichment was 1.45. With RLLVVYPWTRR [HBB_Y36_Q40R] the phosphorylation enrichment was 0.505. TAPFNYSFIFK [RAB14_Y8_YF] was tested, and the phosphorylation enrichment was 2. PYVYYYSYLLK [PTEN_Y178_R173P] was tested, and the phosphorylation enrichment was 3.56. LPHVIYCRLWR [SMAD2_Y128] showed a phosphorylation enrichment of 1.76. Sequence SSDKVCAHQMV [MLH1_Y379_Y379C] has a phosphorylation enrichment of 0.379. For TYGVAYRAKDK [CDK11B_Y453_V452A], the phosphorylation enrichment was 0.357. GDPVQYNRTTD [MLPH_Y454] showed a phosphorylation enrichment of 0.521. In the case of REGAKYVSHSA [ASS1_Y113_G117S], the phosphorylation enrichment is reported as 0.414. Work on SIKGKYVTALY [KCNH2_Y611_D609G] yielded a phosphorylation enrichment of 0.366. VFSTDCFRVGG [NTRK2_Y706_Y706C_YF] was tested, and the phosphorylation enrichment was 0.588. In the case of QDKDLYPCPGT [RLF_Y671_R668K], the phosphorylation enrichment is reported as 0.701. With QLYGAYLRIHA [BSCL2_Y213] the phosphorylation enrichment was 1. For TKFRNYLIPNG [CYP2C8_Y379_K383N], the phosphorylation enrichment was 0.527. SETDDYAEIID [PTK2_Y397] gave a phosphorylation enrichment of 0.877. IRTIDYRFTVC [IDS_Y497_W502C_YF] gave a phosphorylation enrichment of 0.787. With EAIMTYVSSFF [ACTN4_Y260_K255E_YF] the phosphorylation enrichment was 0.621. EAEPYYCSLRD [NPHS1_Y1139_R1140C] was tested, and the phosphorylation enrichment was 1.17. SVVVPDEPPEV [TP53_Y220_Y220D] gave a phosphorylation enrichment of 0.706. SLHPGYNFRYA [P2RX7_Y291_Y288H] showed a phosphorylation enrichment of 0.351. Work on FGSSSSGGAGG [RPA2_Y14_Y14S_YF] yielded a phosphorylation enrichment of 0.287. In the case of EREYKYGAHKY [OAT_Y50_N54K], the phosphorylation enrichment is reported as 0.376. DDERGYRRVRS [GIGYF2_Y268] showed a phosphorylation enrichment of 0.306. For AGRTGYDNREI [BCL2_Y9], the phosphorylation enrichment was 0.392. For NFRTTCVNANE [KCNH2_Y475_Y475C], the phosphorylation enrichment was 0.53. For KKFPDYIQIAM [SGMS2_Y59_YF], the phosphorylation enrichment was 4.26. QISQDYGVLLE [PRDX3_Y172_R170Q] gave a phosphorylation enrichment of 0.876. For RALCHYFKLNI [ETV6_Y401_R399C_YF], the phosphorylation enrichment was 0.691. HSFNSYTFPRL [PAK5_Y316_YF] gave a phosphorylation enrichment of 0.802. With SFCFRYRCAAQ [SUMF1_Y344_R349Q_YF] the phosphorylation enrichment was 0.427. SYTDPYAQPSL [KMT2D_Y2378_P2382S] gave a phosphorylation enrichment of 0.583.

Each sequence was assayed against Fes (UniProt P07332) in the same assay as above.
Chain of Fes (P07332 whole entry, looked up): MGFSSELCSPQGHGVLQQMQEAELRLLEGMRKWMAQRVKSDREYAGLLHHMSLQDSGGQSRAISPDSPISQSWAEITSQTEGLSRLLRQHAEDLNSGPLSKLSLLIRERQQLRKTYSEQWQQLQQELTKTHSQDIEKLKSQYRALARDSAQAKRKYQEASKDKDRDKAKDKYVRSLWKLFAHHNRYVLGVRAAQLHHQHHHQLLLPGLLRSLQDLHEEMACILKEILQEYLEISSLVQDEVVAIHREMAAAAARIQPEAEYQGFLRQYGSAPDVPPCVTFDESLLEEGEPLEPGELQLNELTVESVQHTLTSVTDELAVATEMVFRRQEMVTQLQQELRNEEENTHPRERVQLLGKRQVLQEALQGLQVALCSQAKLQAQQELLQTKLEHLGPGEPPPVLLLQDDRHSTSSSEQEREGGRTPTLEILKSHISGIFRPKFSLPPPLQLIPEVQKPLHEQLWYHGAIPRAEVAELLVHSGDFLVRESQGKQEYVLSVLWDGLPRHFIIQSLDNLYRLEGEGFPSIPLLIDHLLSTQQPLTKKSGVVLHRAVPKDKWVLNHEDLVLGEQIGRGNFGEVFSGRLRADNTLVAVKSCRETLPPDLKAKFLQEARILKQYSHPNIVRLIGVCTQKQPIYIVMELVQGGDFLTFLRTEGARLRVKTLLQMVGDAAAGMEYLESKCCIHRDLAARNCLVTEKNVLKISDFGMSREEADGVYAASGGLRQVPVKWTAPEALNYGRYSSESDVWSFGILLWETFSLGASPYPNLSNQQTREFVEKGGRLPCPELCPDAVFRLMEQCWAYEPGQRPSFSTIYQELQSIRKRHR
In the case of FRQLQYCPSVE [CTNND2_Y508_YF], the phosphorylation enrichment is reported as 1.15. AEMKRYAESSS [RAI14_Y869] gave a phosphorylation enrichment of 0.778. For EPYEVYRIVPE [IRF8_Y110_K108E], the phosphorylation enrichment was 1.15. In the case of RLLVVYPWTRR [HBB_Y36_Q40R], the phosphorylation enrichment is reported as 0.626. In the case of TAPFNYSFIFK [RAB14_Y8_YF], the phosphorylation enrichment is reported as 1.1. Sequence PYVYYYSYLLK [PTEN_Y178_R173P] has a phosphorylation enrichment of 1.87. For LPHVIYCRLWR [SMAD2_Y128], the phosphorylation enrichment was 0.814. SSDKVCAHQMV [MLH1_Y379_Y379C] was tested, and the phosphorylation enrichment was 0.606. Sequence TYGVAYRAKDK [CDK11B_Y453_V452A] has a phosphorylation enrichment of 0.807. GDPVQYNRTTD [MLPH_Y454] showed a phosphorylation enrichment of 1.04. REGAKYVSHSA [ASS1_Y113_G117S] gave a phosphorylation enrichment of 0.785. For SIKGKYVTALY [KCNH2_Y611_D609G], the phosphorylation enrichment was 0.552. VFSTDCFRVGG [NTRK2_Y706_Y706C_YF] was tested, and the phosphorylation enrichment was 0.971. In the case of QDKDLYPCPGT [RLF_Y671_R668K], the phosphorylation enrichment is reported as 1.18. QLYGAYLRIHA [BSCL2_Y213] gave a phosphorylation enrichment of 1.68. For TKFRNYLIPNG [CYP2C8_Y379_K383N], the phosphorylation enrichment was 0.679. For SETDDYAEIID [PTK2_Y397], the phosphorylation enrichment was 1.6. With IRTIDYRFTVC [IDS_Y497_W502C_YF] the phosphorylation enrichment was 1.38. For EAIMTYVSSFF [ACTN4_Y260_K255E_YF], the phosphorylation enrichment was 1.04. EAEPYYCSLRD [NPHS1_Y1139_R1140C] was tested, and the phosphorylation enrichment was 1.43. SVVVPDEPPEV [TP53_Y220_Y220D] showed a phosphorylation enrichment of 1.39. SLHPGYNFRYA [P2RX7_Y291_Y288H] gave a phosphorylation enrichment of 0.949. For FGSSSSGGAGG [RPA2_Y14_Y14S_YF], the phosphorylation enrichment was 0.638. In the case of EREYKYGAHKY [OAT_Y50_N54K], the phosphorylation enrichment is reported as 0.625. Sequence DDERGYRRVRS [GIGYF2_Y268] has a phosphorylation enrichment of 0.593. For AGRTGYDNREI [BCL2_Y9], the phosphorylation enrichment was 0.955. NFRTTCVNANE [KCNH2_Y475_Y475C] gave a phosphorylation enrichment of 0.955. KKFPDYIQIAM [SGMS2_Y59_YF] gave a phosphorylation enrichment of 1.06. Work on QISQDYGVLLE [PRDX3_Y172_R170Q] yielded a phosphorylation enrichment of 1.69. RALCHYFKLNI [ETV6_Y401_R399C_YF] gave a phosphorylation enrichment of 1.37. Work on HSFNSYTFPRL [PAK5_Y316_YF] yielded a phosphorylation enrichment of 1.74. Sequence SFCFRYRCAAQ [SUMF1_Y344_R349Q_YF] has a phosphorylation enrichment of 0.762. SYTDPYAQPSL [KMT2D_Y2378_P2382S] showed a phosphorylation enrichment of 1.

These sequences were tested on AncSZ in the same assay as above.
Sequence FRQLQYCPSVE [CTNND2_Y508_YF] has a phosphorylation enrichment of 0.949. For AEMKRYAESSS [RAI14_Y869], the phosphorylation enrichment was 0.607. EPYEVYRIVPE [IRF8_Y110_K108E] was tested, and the phosphorylation enrichment was 3.39. With RLLVVYPWTRR [HBB_Y36_Q40R] the phosphorylation enrichment was 0.683. Work on TAPFNYSFIFK [RAB14_Y8_YF] yielded a phosphorylation enrichment of 0.975. PYVYYYSYLLK [PTEN_Y178_R173P] was tested, and the phosphorylation enrichment was 1.99. LPHVIYCRLWR [SMAD2_Y128] gave a phosphorylation enrichment of 1.05. In the case of SSDKVCAHQMV [MLH1_Y379_Y379C], the phosphorylation enrichment is reported as 0.587. TYGVAYRAKDK [CDK11B_Y453_V452A] gave a phosphorylation enrichment of 0.712. For GDPVQYNRTTD [MLPH_Y454], the phosphorylation enrichment was 0.705. Work on REGAKYVSHSA [ASS1_Y113_G117S] yielded a phosphorylation enrichment of 0.764. With SIKGKYVTALY [KCNH2_Y611_D609G] the phosphorylation enrichment was 0.498. VFSTDCFRVGG [NTRK2_Y706_Y706C_YF] showed a phosphorylation enrichment of 1.02. QDKDLYPCPGT [RLF_Y671_R668K] was tested, and the phosphorylation enrichment was 1.36. With QLYGAYLRIHA [BSCL2_Y213] the phosphorylation enrichment was 1.95. For TKFRNYLIPNG [CYP2C8_Y379_K383N], the phosphorylation enrichment was 0.68. With SETDDYAEIID [PTK2_Y397] the phosphorylation enrichment was 1.53. Sequence IRTIDYRFTVC [IDS_Y497_W502C_YF] has a phosphorylation enrichment of 1.22. EAIMTYVSSFF [ACTN4_Y260_K255E_YF] showed a phosphorylation enrichment of 1.02. For EAEPYYCSLRD [NPHS1_Y1139_R1140C], the phosphorylation enrichment was 1.78. SVVVPDEPPEV [TP53_Y220_Y220D] gave a phosphorylation enrichment of 1.33. SLHPGYNFRYA [P2RX7_Y291_Y288H] was tested, and the phosphorylation enrichment was 0.657. Work on FGSSSSGGAGG [RPA2_Y14_Y14S_YF] yielded a phosphorylation enrichment of 0.499. Work on EREYKYGAHKY [OAT_Y50_N54K] yielded a phosphorylation enrichment of 0.626. Work on DDERGYRRVRS [GIGYF2_Y268] yielded a phosphorylation enrichment of 0.563. AGRTGYDNREI [BCL2_Y9] gave a phosphorylation enrichment of 0.779. With NFRTTCVNANE [KCNH2_Y475_Y475C] the phosphorylation enrichment was 0.974. Work on KKFPDYIQIAM [SGMS2_Y59_YF] yielded a phosphorylation enrichment of 1.13. QISQDYGVLLE [PRDX3_Y172_R170Q] showed a phosphorylation enrichment of 1.37. Sequence RALCHYFKLNI [ETV6_Y401_R399C_YF] has a phosphorylation enrichment of 1.33. Sequence HSFNSYTFPRL [PAK5_Y316_YF] has a phosphorylation enrichment of 1.78. In the case of SFCFRYRCAAQ [SUMF1_Y344_R349Q_YF], the phosphorylation enrichment is reported as 1.25. Sequence SYTDPYAQPSL [KMT2D_Y2378_P2382S] has a phosphorylation enrichment of 1.18.

What follows are sequences tested against Hck (UniProt P08631) in the same assay as above.
Chain of Hck (P08631 whole entry, looked up): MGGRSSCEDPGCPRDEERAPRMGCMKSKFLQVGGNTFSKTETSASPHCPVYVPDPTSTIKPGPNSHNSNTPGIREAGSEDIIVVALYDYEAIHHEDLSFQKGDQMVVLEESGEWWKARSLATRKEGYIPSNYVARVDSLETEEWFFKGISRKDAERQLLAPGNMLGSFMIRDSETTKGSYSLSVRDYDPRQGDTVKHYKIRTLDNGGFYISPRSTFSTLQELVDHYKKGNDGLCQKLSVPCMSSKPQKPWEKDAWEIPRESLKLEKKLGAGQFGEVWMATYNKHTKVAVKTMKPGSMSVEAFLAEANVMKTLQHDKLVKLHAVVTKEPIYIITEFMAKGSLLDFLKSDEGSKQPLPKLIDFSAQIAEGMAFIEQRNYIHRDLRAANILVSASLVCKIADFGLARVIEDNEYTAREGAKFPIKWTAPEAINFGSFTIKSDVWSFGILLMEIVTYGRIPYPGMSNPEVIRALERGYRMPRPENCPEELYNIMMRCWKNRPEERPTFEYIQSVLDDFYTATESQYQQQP
FRQLQYCPSVE [CTNND2_Y508_YF] was tested, and the phosphorylation enrichment was 0.499. AEMKRYAESSS [RAI14_Y869] gave a phosphorylation enrichment of 0.403. For EPYEVYRIVPE [IRF8_Y110_K108E], the phosphorylation enrichment was 4.62. RLLVVYPWTRR [HBB_Y36_Q40R] gave a phosphorylation enrichment of 1.14. For TAPFNYSFIFK [RAB14_Y8_YF], the phosphorylation enrichment was 0.56. Sequence PYVYYYSYLLK [PTEN_Y178_R173P] has a phosphorylation enrichment of 3.46. For LPHVIYCRLWR [SMAD2_Y128], the phosphorylation enrichment was 2.31. SSDKVCAHQMV [MLH1_Y379_Y379C] gave a phosphorylation enrichment of 0.4. TYGVAYRAKDK [CDK11B_Y453_V452A] showed a phosphorylation enrichment of 1.15. Sequence GDPVQYNRTTD [MLPH_Y454] has a phosphorylation enrichment of 0.381. In the case of REGAKYVSHSA [ASS1_Y113_G117S], the phosphorylation enrichment is reported as 0.457. SIKGKYVTALY [KCNH2_Y611_D609G] showed a phosphorylation enrichment of 0.465. Sequence VFSTDCFRVGG [NTRK2_Y706_Y706C_YF] has a phosphorylation enrichment of 0.685. QDKDLYPCPGT [RLF_Y671_R668K] was tested, and the phosphorylation enrichment was 0.625. In the case of QLYGAYLRIHA [BSCL2_Y213], the phosphorylation enrichment is reported as 4.32. TKFRNYLIPNG [CYP2C8_Y379_K383N] was tested, and the phosphorylation enrichment was 0.432. With SETDDYAEIID [PTK2_Y397] the phosphorylation enrichment was 0.702. Work on IRTIDYRFTVC [IDS_Y497_W502C_YF] yielded a phosphorylation enrichment of 0.581. EAIMTYVSSFF [ACTN4_Y260_K255E_YF] gave a phosphorylation enrichment of 0.643. Sequence EAEPYYCSLRD [NPHS1_Y1139_R1140C] has a phosphorylation enrichment of 2.94. SVVVPDEPPEV [TP53_Y220_Y220D] showed a phosphorylation enrichment of 0.567. Work on SLHPGYNFRYA [P2RX7_Y291_Y288H] yielded a phosphorylation enrichment of 0.492. Work on FGSSSSGGAGG [RPA2_Y14_Y14S_YF] yielded a phosphorylation enrichment of 0.312. In the case of EREYKYGAHKY [OAT_Y50_N54K], the phosphorylation enrichment is reported as 0.392. For DDERGYRRVRS [GIGYF2_Y268], the phosphorylation enrichment was 0.353. AGRTGYDNREI [BCL2_Y9] was tested, and the phosphorylation enrichment was 0.367. Sequence NFRTTCVNANE [KCNH2_Y475_Y475C] has a phosphorylation enrichment of 0.483. In the case of KKFPDYIQIAM [SGMS2_Y59_YF], the phosphorylation enrichment is reported as 0.496. QISQDYGVLLE [PRDX3_Y172_R170Q] showed a phosphorylation enrichment of 0.743. In the case of RALCHYFKLNI [ETV6_Y401_R399C_YF], the phosphorylation enrichment is reported as 0.776. Work on HSFNSYTFPRL [PAK5_Y316_YF] yielded a phosphorylation enrichment of 0.525. In the case of SFCFRYRCAAQ [SUMF1_Y344_R349Q_YF], the phosphorylation enrichment is reported as 0.514. SYTDPYAQPSL [KMT2D_Y2378_P2382S] was tested, and the phosphorylation enrichment was 0.567.
